Patent US20090297535A1 (Ablynx, published 2009)

B1: PMP7G5 (VHH)
VHH: QVKLEESGGGLVQPGGSLRLSCAASGSISRFNIMGWYRQAPGKQRELVADITNGGTTMYADSVKGRFTISRDNTKNTVYLQMNSLKPEDTAVYYCHTYYPTTGFDDWGQGAQVTVSS
notes: Monovalent Nanobody
B2: PMP17B11 (VHH)
VHH: QVQLVESGGGLVQAGGSLRLSCAASGPTFSTYAMGWFRQAPGKEREFVAAISWSGANTYYADSVKGRFTISRDNAKNTVYLRMNSLKPEDTAAYYCAASAIIEGFQDSIVIFSEAGYDYWGQGTQVTVSS
B3: PMP6B12 (VHH)
VHH: AVQLVESGGGLVQPGGSLRLSCAASGFTLAYYAIGWFRQAPGKEREGVSCISSSVGTTYYSDSVKGRFTISRDNAKNTVYLQMNSLKPEDTAVYYCVRSSWFDCGVQGRDLGNEYDYRGQGTQVTVSS
notes: Monovalent Nanobody
B4: PMP21E7 (VHH)
VHH: AVQLVESGGGLVQAGGSLRLSSVVSGGTFSSYPIAWFRQPPGKEREFVAAISWRGGNTYYADSVKGRFTISRDNAKNTVYLQMNSLKPEDTAVYYSAAERAGVLLTKVPEGYDYWGQGTQVTVSS
notes: Monovalent Nanobody
B5: PMP10C4 (VHH)
VHH: AVQLVDSGGGLVQAGGSLRLSCAASGRSFSNYHMVWFRQAPGKEREFVAAASGSTSSTYYADSVKGRFTISRDNAKNTVYLQMNSLKPEDTAVYYCAAVAGLLLPRVAEGMDYWGKGTLVTVSS
notes: Monovalent Nanobody
B6: PMP7G4 (VHH)
VHH: AVQLVESGGGLVQPGGSLRLSCAASGSIFSRLAMDWYRQAPGKQRELVASISRSGTTMAADSVKGRFTISRDNAENMVYLQMNSLKPEDTAVYVCMAFDGYSGSDYWGRGTQVTVSS
notes: Monovalent Nanobody
B7: PMP6E10 (VHH)
VHH: QVKLEESGGGLVQAGGSLRLSCVVSGRTFSPYTIAWFRQAPGKEREFVTTIIGSDRSTDLDGDTYYADSVRGRFTISRNDAKNTVFLQMSSLKPEDTAVYYCALTGKGYVFTPNEYDYWGQGTQVTVSS
notes: Monovalent Nanobody
B8: PMP17C4 (VHH)
VHH: AVQLVDSGGGLVQAGDSLRLSCAASGRTFSNYAMAWFRQAPGKEREFVAVISYAGGRTYYADSVKGRFTISRDNAKNTVYLQMNSLKPEDTAVYYCAAVDSPLIATHPRGYDYWGQGTQVTVSS
notes: Monovalent Nanobody
B9: PMP6B6 (VHH)
VHH: QVQLVESAGGLVQPGGSLRLSCAASGIIFSINAMGWYRQAPGKRRELVADIMPYGSTEYADSVKGRFTISRDNAKNTVYLQMNSLKPEDTAVYYCHSYDPRGDDYWGQGTQVTVSS
notes: Monovalent Nanobody
B10: PMP10A6 (VHH)
VHH: QVQLVESGGGLVQAGGSLRLSCASSGRTFSSYVMGWFRQTPGKEREFVSTINWSGSNGYYADSVKGRFTISRDNAKNTVYLQMNNLKPEDTAVYYCAASAGGFLVPRVGQGYDYWGQGTQVTVSS
notes: Monovalent Nanobody
B11: PMP21B4 (VHH)
VHH: QVQLVESGGGLVQAGDSLRVACAASGRTFSIDAMAWFRQAPGKEREFVSTMNWSTGATYYADSVKGRFTSSRDNAKSTSYLQMNSLKPEDTAVYYCAAARGLLIATDARGYDYWGQGTQVTVSS
notes: Monovalent Nanobody
B12: PMP7G9 (VHH)
VHH: QVQLVESGGGLVQPGGSLRLSCAASGFSLDYYGVGWFRQAPGKEREGVSCISSSDGDTYYADSVKGRFTISRDNAKNTVYLQMNSLKPEDTAVYYCATDLSDYGVCSRWPSPYDYWGQGTQVTVSS
notes: Monovalent Nanobody
B13: PMP13F12 (VHH)
VHH: AVQLVDSGGGLVQAGGSLRLSCAASGRTFSSSPMGWFRQAPGKEREFVAAISGRSGNTYYADSVKGRFTISRDNAKNTVYLQMNSLKPEDTAVYYCAAERVGLLLTVVAEGYDYWGQGTQVTVSS
notes: Monovalent Nanobody
B14: PMP21H1 (VHH)
VHH: QVQLVESGGGLVQTGGSLRLSCAASGSTFSKHHATGWFRQAPGKEREFVAALNWSGGNTYYTDSVKGRFTISRDNAQNTVYLQMNSLKPEDTAVYYCAAGSYVFYFTVRDQYDYWGQGTQVTVSS
notes: Monovalent Nanobody

target: T1, recombinant human IL6 (human, UniProt P05231 30-212); test: SPR, Biacore 3000; IL6 amine-coupled on CM5 chip, periplasmic extract injected
T1 construct: Amine-coupled to a CM5 chip in the Biacore assay; used biotinylated in the Alphascreen assays; also called interleukin-6; biotinylated human IL6
Description: Off-rate analysis of Nanobodies binding to IL6 was done by surface plasmon resonance on a Biacore 3000 instrument. Recombinant human IL6 was covalently bound to a CM5 sensor chip via amine coupling at a density of ˜500 RU. Remaining reactive groups were inactivated. Periplasmic extracts prepared from E. coli cells expressing anti-IL6 Nanobodies were diluted 10 or 15-fold and injected for 4 min to allow for binding to IL6 immobilized on the chip. Buffer without Nanobody was sent over the chip for 30 min to allow for spontaneous dissociation of bound Nanobody. The dissociation phase was used to calculate the koff values for each individual Nanobody (table B-1).

koff [s⁻¹] | Binder
0.000412 | B1
0.00133 | B2
0.00027 | B3
0.000772 | B4
0.00082 | B5
0.00208 | B6
0.000545 | B7
0.00137 | B8
0.000433 | B9
0.00104 | B10
0.000658 | B11
0.00287 | B12
3.66e-05 | B13
0.00124 | B14

target: T1, recombinant human IL6; test: Alphascreen competition: Nanobody titrated against 3 nM biotinylated human IL6; blocked partner IL6R (1 nM) captured on acceptor beads coated with anti-IL6R MAb BN-12; streptavidin donor beads; readout cps
Description: Purified samples of Nanobodies PMP6B6, PMP7G5, PMP7G9 and PMP7G4 were analyzed in Alphascreen for their ability to inhibit the interaction between IL6 and IL6R. In this assay, various concentrations of anti-IL6 Nanobodies ranging from 1 uM to 10 pM were incubated with 3 nM biotinylated human IL6 for 15 min in a 384-wells plate. Subsequently a mixture of IL6R (1 nM) and acceptor beads (20 ug/ml) coated with anti-IL6R MAb BN-12 (Diaclone) were added and incubated for 30 min. Finally, streptavidin coated donor beads (20 ug/ml) were added. After 1 hour of incubation plates were read on the Envison Alphascreen reader (PerkinElmer). All experiments were performed in duplicate.

IC50 [nM] | Binder
6.1 | B1
2.5 | B6
2 | B9
3.4 | B12

target: T1, recombinant human IL6; test: cell-based or functional assay

IC50, inhibition of proliferation of the murine hybridoma cell line B9 (B9 assay, cell proliferation normalized) [nM] | Binder
0.702 | B2
0.05 | B4
0.961 | B5
0.064 | B8
0.332 | B10
1.86 | B11
0.008 | B13
2.58 | B14

target: T1, recombinant human IL6; test: cell-based or functional assay; remark: another data set of the same source

IC50, inhibition of proliferation of the murine hybridoma cell line B9 (B9 assay, cell proliferation normalized) [nM] | Binder
0.017 | B1
0.028 | B3
0.421 | B6
1.07 | B7
0.003 | B9
0.385 | B12
